Reference: article PMC7612262 (Structure (London, England : 1993), 2006)
Substitutions are numbered along the chain they refer to.

Molecular target: the molecule itself
Test: crystal structure

B1: MS2 coat protein Asn87Ser mutant (natural protein, bacteriophage MS2)
chain: ASNFTQFVLVDNGGTGDVTVAPSNFANGVAEWISSNSRSQAYKVTCSVRQSSAQNRKYTIKVEVPKVATQTVGGVELPVAAWRSYLSMELTIPIFATNSDCELIVKAMQGLLKDGNPIPSAIAANSGIY
B1: binds.

B2: MS2 coat protein Asn87Ser, Glu89Lys double mutant (natural protein, bacteriophage MS2)
chain: B1 chain with E89K
B2: binds.
